First the molecules themselves.
B1: VACV M2 (vaccinia virus M2), recombinant, His-tagged (natural protein)
chain: VEYKNTICPPRQDYRYWYFAAELTIGVNYDINSTIIGECHMSESYIDRNANIVLTGYGLEINMTIMDTDQRFVAAAEGVGKDNKLSVLLFTTQRLDKVHHNISVTITCMEMNCGTTKYDSDLPESIHKSSSCDITINGSCVTCVNLETDPTKINPHYLHPKDKYLYHNSEYGMRGSYGVTFIDELNQCLLDIKELSYDICYRE

For series [1], the target named is T1, human B7.2 ectodomain fused to human Fc (human, UniProt P42081-1 26-238).
T1 construct: also called hB7.2-Fc; hB7.2-hFc; not shown: Fc (human), C-terminal, kept
T1 sequence (looked up): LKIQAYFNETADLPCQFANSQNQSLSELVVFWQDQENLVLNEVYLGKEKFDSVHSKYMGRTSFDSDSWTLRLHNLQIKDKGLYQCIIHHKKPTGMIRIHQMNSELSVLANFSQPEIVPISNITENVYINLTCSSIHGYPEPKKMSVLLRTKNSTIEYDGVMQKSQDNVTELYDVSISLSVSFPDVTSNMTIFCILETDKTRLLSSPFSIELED
As to the kind of experiment: far-Western, overlay or dot blot. The settings on record: both partners purified.

Series [2] deals with the molecule itself. As to the kind of experiment: non-reducing against reducing SDS-PAGE.
In series [3] the target is B1. In words: far-Western, overlay or dot blot. To be noted: both partners purified.

Regarding B1, the binding result in series [1] and in series [2] was “binds” throughout.

B2: human B7.1 ectodomain fused to human Fc (Fc fusion, UniProt P33681-1 35-234, looked up)
chain: VIHVTKEVKEVATLSCGHNVSVEELAQTRIYWQKEKKMVLTMMSGDMNIWPEYKNRTIFDITNNLSIVILALRPSDEGTYECVVLKYEKDAFKREHLAEVTLSVKADFPTPSISDFEIPTSNIRRIICSTSGGFPEPHLSWLENGEELNAINTTVSQDPETELYAVSSKLDFNMTTNHSFMCLIKYGHLRVNQTFNWNTT
notes: also called hB7.1-Fc; hB7.1-hFc; not shown: Fc (human), C-terminal, kept
Consider B2, for which, in series [3], the binding result was “binds”.
